± gives the uncertainty stated by the source.
assay: amyloid nucleation score (Sup35N fusion, yeast selection) (log enrichment); library NNK2; higher = more nucleation; inactive = no reads after selection
Summary of the method: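 Nucleation score: DiMSum log enrichment of output over input reads, centred on the mode score of non-aggregating sequences. Only sequences with at least 100 input reads were kept. Reads came from Illumina sequencing of plasmid inserts before and after 7 days of growth at 30°C without adenine and uracil, in psi-negative yeast expressing Sup35N fused to peptides of 20 random codons after 24 hours of induction with 100 μM copper sulfate.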

In order of rising amyloid nucleation score:
1. IYFWDTLTFLLSCLHAAGEN  -1.87 ± 0.64
2. MSGFKGVITSTFIANSLLPM  -1.17 ± 0.48
3. GGSMSGFLSCGMI  -1.02 ± 0.22
4. IKISNLTTKVMSHFVSGVAK  -0.982 ± 0.48
5. RSGESRWTYYLVEIYFDGSF  -0.913 ± 0.78
6. QSGLIHY  -0.894 ± 0.78
7. FRYHRTSCQSHSVWRTFTSF  -0.884 ± 0.39
8. IVDGVYEFKC  -0.779 ± 0.32
9. SRKNRSRVSTTISR  -0.731 ± 0.3
10. KVPMICSMEWRPLVSSHCTR  -0.718 ± 0.76
11. SIAWRLEFIVDDGVLFRCKS  -0.563 ± 0.35
12. CRQISGNTNVRLGASSMRII  -0.526 ± 0.55
13. MCLYVRLWFMSPVSLDSSAL  -0.512 ± 0.55
14. RMIPCLLRFGTYLFF  -0.509 ± 1.1
15. KAVCGCLLLGFVNFLYPVEV  -0.495 ± 0.21
16. DNSAGDLYNSSVTGSPVMQL  -0.447 ± 0.22
17. SGTRYYPSWIFGFLVVCKG  -0.404 ± 0.64
18. GSVGFVQYAVGNSMTSGIMV  -0.307 ± 0.2
19. SFFPS  -0.301 ± 0.45
20. ECNQCWNMGMM  -0.252 ± 0.76
21. NTTQAV  -0.249 ± 1
22. ALDSNSWPYDGGMWRTT  -0.232 ± 1.1
23. GTDSL  -0.226 ± 1.1
24. VTMIPA  -0.207 ± 0.63
25. YLPFMWCCMIWWAGGVCRL  -0.143 ± 0.76
26. RTEDPKTDYVKRGKRKWRVW  -0.129 ± 1.1
27. GDSGFKLI  -0.105 ± 0.39
28. LLTLFG  -0.087 ± 0.56
29. VSVVDGSILMNLCLRLVLRR  -0.068 ± 0.79
30. AFYKFMSEHSSAVHCDPMHD  -0.025 ± 0.76
31. LNLLADNTLYGDSSYVGYLR  0.021 ± 0.4
32. TVATRHYNLNGQSWKKWAQ  0.059 ± 0.23
33. HIRDTESTTLVRVRGCSSPK  0.07 ± 0.61
34. IRFKVMGFMFFVSW  0.094 ± 0.65
35. RFRWTSVSRVKGCFNKMYPS  0.1 ± 0.3
36. ETFVYYFNVSSLVT  0.11 ± 0.38
37. SSLWVWYLIVD  0.145 ± 0.21
38. YAFQW  0.152 ± 0.77
39. RWATAKRI  0.194 ± 0.49
40. PQINMGVLAGGVYHYSTCGK  0.196 ± 0.74
41. SRIGLYIKCVVLDWRELNLS  0.206 ± 0.55
42. IVSSSNFFKLMYCMFILRIS  0.247 ± 1
43. LYWRKTVITIEWSCSGGNLR  0.278 ± 0.27
44. IMLGTFMRNLQNLQHFVRHV  0.337 ± 0.57
45. IVMSCSMNPIEAYEVLCEFF  0.382 ± 0.8
46. TRWLGGISMGNSVFVLIRTL  0.416 ± 0.51
47. LNNHTPDLVWRSSVIGRCQK  0.47 ± 0.48
48. MVCSRYRRVCSNVNG  0.506 ± 0.48
49. YFWTFTSWQTTGRCHSP  0.521 ± 0.17
50. FCPMVLAFTSRGIATKNCGV  0.566 ± 0.74
51. CAKGPKSWQNGNE  0.626 ± 0.8
52. WHRVFKGLS  0.658 ± 0.26
53. HVLFIAKLDFALTEFLRMCE  0.735 ± 0.19
54. HYCSVRMWLTTKEADPRTSL  0.739 ± 0.31
55. VSGMPIKMR  0.886 ± 0.34
56. GSESLNV  0.887 ± 0.57
57. RLMFLVFSESSKYSALHMWG  0.939 ± 0.19
58. NSLLVFQNNFGIETNGVNII  0.94 ± 0.74
59. LWTHGSYSVLRLIEPVGAQE  0.971 ± 0.51
60. WRELKSQVDWRLDILSGSYR  0.971 ± 0.26
61. PVNCGWQGEDRTVEILHAHG  1.13 ± 0.28
62. YMSARVMFGGEPCCCGSGGE  1.74 ± 0.27
63. STMREQRRRAWRKDCDVIKV  1.84 ± 0.22
64. FSIGCVMGLAINLSGFALWV  1.84 ± 0.14
65. CHVVVVLEF  2.71 ± 0.078
66. VNAFLSLKSKACHWACGNDD  3.67 ± 0.055
67. VCYKIVKTSYNSFWDF  4.39 ± 0.1
68. QSLVIN  4.58 ± 0.05
69. CKLMMGVFVLTVNTCGDVSS  5.33 ± 0.054
70. FVTRGSVAMTQVGYNTVIRM  5.64 ± 0.061
71. RYGRRSYLPAIIRCARCLDE  6.56 ± 0.066
72. YIRIYRVTMRFNCINVAPWG  6.928 ± 0.048
73. SVYVANYGYPRSGLN  7.02 ± 0.078
74. NGNGCLAFAKTVFCWVDGLP  7.215 ± 0.046
75. VGGVIYAYGFVFF  7.381 ± 0.029
76. HHATKNFCTLFCLKSWGRFS  7.767 ± 0.059

For EEILHLVPINWGLYYYYTFC, the amyloid nucleation score was “inactive”.
With WCCKVTGHFPDTEQYYFPPP the amyloid nucleation score was “inactive”.
In the case of MDYNLIKCAPWT, the amyloid nucleation score is reported as “inactive”.
In the case of SFCMPGISLFLVFRQTDGHM, the amyloid nucleation score is reported as “inactive”.
For LRFNDFA, the amyloid nucleation score was “inactive”.
With CNLCSDP the amyloid nucleation score was “inactive”.
With GSSVIFSALRMYVSLFLYLV the amyloid nucleation score was “inactive”.
With DDIFIRKLFQYS the amyloid nucleation score was “inactive”.
For SITAIYESLNRRRNLKFKYC, the amyloid nucleation score was “inactive”.

From the supplement of paper PMC12042874
